Like-named read-outs stand apart in the source and are kept apart here.
What was measured:
Assay in all cases: BLI
[1] = target: T1, EGFRvIII (human, UniProt P00533)
[2] = target: T1, EGFRvIII; remark: listed apart in the source
[3] = target: EGFR (wild-type, His-tagged or biotinylated) (human, UniProt P00533)

Row | Kd [1] [nM] | Kd [2] [nM] | Kd [3] [nM] | Binder
1 | 8.77 |  |  | SI-95X13 (antibody) chain 1: not shown chain 2: QVQLQQSGAEVKKPGSSVKVSCKASGYTFTNYYIYWVRQAPGQGLEWIGGINPTSGGSNFNEKFKTRVTITADESSTTAYMELSSLRSEDTAFYFCTRQGLWFDSDGRGFDFWGQGTTVTVSSGGGGSGGGGSGGGGSDIQMTQSPSSLSASVGDRVTITCRSSQNIVHSNGNTYLDWYQQTPGKAPKLLIYKVSNRFSGVPSRFSGSGSGTDFTFTISSLQPEDIATYYCFQYSHVPWTFGQGTKLQITGGGGSGGGGSGSGSGGGGGSGGGGSGGGGSDILMTQSPSSMSVSLGDTVSITCHSSQDINSNIGWLQQRPGKSFKGLIYHGTNLDDEVPSRFSGSGSGADYSLTISSLESEDFADYYCVQYAQFPWTFGGGTKLEIKRTVAAPSVFIFPPSDEQLKSGTASVVCLLNNFYPREAKVQWKVDNALQSGNSQESVTEQDSKDSTYSLSSTLTLSKADYEKHKVYACEVTHQGLSSPVTKSFNRGEC
2 |  | 0.493 | 0.497 | SI-95X63 (antibody) chain 1: not shown chain 2: DILMTQSPSSMSVSLGDTVSITCHSSQDINSNIGWLQQRPGKSFKGLIYHGTNLDDEVPSRFSGSGSGADYSLTISSLESEDFADYYCVQYAQFPWTFGGGTKLEIKRTVAAPSVFIFPPSDEQLKSGTASVVCLLNNFYPREAKVQWKVDNALQSGNSQESVTEQDSKDSTYSLSSTLTLSKADYEKHKVYACEVTHQGLSSPVTKSFNRGEC
3 | 8.41 |  |  | SI-95X7 (antibody) chain 1: not shown chain 2: DILMTQSPSSMSVSLGDTVSITCHSSQDINSNIGWLQQRPGKSFKGLIYHGTNLDDEVPSRFSGSGSGADYSLTISSLESEDFADYYCVQYAQFPWTFGGGTKLEIKRTVAAPSVFIFPPSDEQLKSGTASVVCLLNNFYPREAKVQWKVDNALQSGNSQESVTEQDSKDSTYSLSSTLTLSKADYEKHKVYACEVTHQGLSSPVTKSFNRGEC
4 | 6.97 |  |  | SI-95X8 (antibody) chain 1: not shown chain 2: DILMTQSPSSMSVSLGDTVSITCHSSQDINSNIGWLQQRPGKSFKGLIYHGTNLDDEVPSRFSGSGSGADYSLTISSLESEDFADYYCVQYAQFPWTFGGGTKLEIKRTVAAPSVFIFPPSDEQLKSGTASVVCLLNNFYPREAKVQWKVDNALQSGNSQESVTEQDSKDSTYSLSSTLTLSKADYEKHKVYACEVTHQGLSSPVTKSFNRGEC
5 | 4.87 |  |  | SI-95X11 (antibody) chain 1: not shown chain 2: QVQLQQSGAEVKKPGSSVKVSCKASGYTFTNYYIYWVRQAPGQGLEWIGGINPTSGGSNFNEKFKTRVTITADESSTTAYMELSSLRSEDTAFYFCTRQGLWFDSDGRGFDFWGQGTTVTVSSGGGGSGGGGSGGGGSDIQMTQSPSSLSASVGDRVTITCRSSQNIVHSNGNTYLDWYQQTPGKAPKLLIYKVSNRFSGVPSRFSGSGSGTDFTFTISSLQPEDIATYYCFQYSHVPWTFGQGTKLQITSGSGSGGGGGSGGGGSGGGGSDILMTQSPSSMSVSLGDTVSITCHSSQDINSNIGWLQQRPGKSFKGLIYHGTNLDDEVPSRFSGSGSGADYSLTISSLESEDFADYYCVQYAQFPWTFGGGTKLEIKRTVAAPSVFIFPPSDEQLKSGTASVVCLLNNFYPREAKVQWKVDNALQSGNSQESVTEQDSKDSTYSLSSTLTLSKADYEKHKVYACEVTHQGLSSPVTKSFNRGEC

The remaining lines, values behind:

Row | Binder | Kd [1] [nM] | Kd [2] [nM] | Kd [3] [nM]
6 | SI-95X12 (antibody) chain 1: not shown chain 2: QVQLQQSGAEVKKPGSSVKVSCKASGYTFTNYYIYWVRQAPGQGLEWIGGINPTSGGSNFNEKFKTRVTITADESSTTAYMELSSLRSEDTAFYFCTRQGLWFDSDGRGFDFWGQGTTVTVSSGGGGSGGGGSGGGGSDIQMTQSPSSLSASVGDRVTITCRSSQNIVHSNGNTYLDWYQQTPGKAPKLLIYKVSNRFSGVPSRFSGSGSGTDFTFTISSLQPEDIATYYCFQYSHVPWTFGQGTKLQITGGGGSGSGSGGGGGSGGGGSGGGGSDILMTQSPSSMSVSLGDTVSITCHSSQDINSNIGWLQQRPGKSFKGLIYHGTNLDDEVPSRFSGSGSGADYSLTISSLESEDFADYYCVQYAQFPWTFGGGTKLEIKRTVAAPSVFIFPPSDEQLKSGTASVVCLLNNFYPREAKVQWKVDNALQSGNSQESVTEQDSKDSTYSLSSTLTLSKADYEKHKVYACEVTHQGLSSPVTKSFNRGEC | 7.8 |  | 
7 | SI-95X14 (antibody) chain 1: not shown chain 2: DIQMTQSPSSLSASVGDRVTITCRSSQNIVHSNGNTYLDWYQQTPGKAPKLLIYKVSNRFSGVPSRFSGSGSGTDFTFTISSLQPEDIATYYCFQYSHVPWTFGQGTKLQITGGGGSGGGGSGGGGSQVQLQQSGAEVKKPGSSVKVSCKASGYTFTNYYIYWVRQAPGQGLEWIGGINPTSGGSNFNEKFKTRVTITADESSTTAYMELSSLRSEDTAFYFCTRQGLWFDSDGRGFDFWGQGTTVTVSSSGSGSGGGGGSGGGGSGGGGSDILMTQSPSSMSVSLGDTVSITCHSSQDINSNIGWLQQRPGKSFKGLIYHGTNLDDEVPSRFSGSGSGADYSLTISSLESEDFADYYCVQYAQFPWTFGGGTKLEIKRTVAAPSVFIFPPSDEQLKSGTASVVCLLNNFYPREAKVQWKVDNALQSGNSQESVTEQDSKDSTYSLSSTLTLSKADYEKHKVYACEVTHQGLSSPVTKSFNRGEC | 0.428 |  | 
8 | SI-95X46 (antibody) chain 1: not shown chain 2: EIVLTQSPSTLSVSPGERATFSCRASQSIGTNIHWYQQKPGKPPRLLIKYASESISGIPDRFSGSGSGTEFTLTISSVQSEDFAVYYCQQNNNWPTTFGPGTKLTVLRTVAAPSVFIFPPSDEQLKSGTASVVCLLNNFYPREAKVQWKVDNALQSGNSQESVTEQDSKDSTYSLSSTLTLSKADYEKHKVYACEVTHQGLSSPVTKSFNRGEC |  | 0.358 | 7.3
9 | SI-95X15 (antibody) chain 1: not shown chain 2: DIQMTQSPSSLSASVGDRVTITCRSSQNIVHSNGNTYLDWYQQTPGKAPKLLIYKVSNRFSGVPSRFSGSGSGTDFTFTISSLQPEDIATYYCFQYSHVPWTFGQGTKLQITGGGGSGGGGSGGGGSQVQLQQSGAEVKKPGSSVKVSCKASGYTFTNYYIYWVRQAPGQGLEWIGGINPTSGGSNFNEKFKTRVTITADESSTTAYMELSSLRSEDTAFYFCTRQGLWFDSDGRGFDFWGQGTTVTVSSGGGGSGSGSGGGGGSGGGGSGGGGSDILMTQSPSSMSVSLGDTVSITCHSSQDINSNIGWLQQRPGKSFKGLIYHGTNLDDEVPSRFSGSGSGADYSLTISSLESEDFADYYCVQYAQFPWTFGGGTKLEIKRTVAAPSVFIFPPSDEQLKSGTASVVCLLNNFYPREAKVQWKVDNALQSGNSQESVTEQDSKDSTYSLSSTLTLSKADYEKHKVYACEVTHQGLSSPVTKSFNRGEC | 0.175 |  | 
10 | SI-95X9 (antibody) chain 1: not shown chain 2: DILMTQSPSSMSVSLGDTVSITCHSSQDINSNIGWLQQRPGKSFKGLIYHGTNLDDEVPSRFSGSGSGADYSLTISSLESEDFADYYCVQYAQFPWTFGGGTKLEIKRTVAAPSVFIFPPSDEQLKSGTASVVCLLNNFYPREAKVQWKVDNALQSGNSQESVTEQDSKDSTYSLSSTLTLSKADYEKHKVYACEVTHQGLSSPVTKSFNRGEC | 6.16 |  | 
11 | SI-95X10 (antibody) chain 1: not shown chain 2: DILMTQSPSSMSVSLGDTVSITCHSSQDINSNIGWLQQRPGKSFKGLIYHGTNLDDEVPSRFSGSGSGADYSLTISSLESEDFADYYCVQYAQFPWTFGGGTKLEIKRTVAAPSVFIFPPSDEQLKSGTASVVCLLNNFYPREAKVQWKVDNALQSGNSQESVTEQDSKDSTYSLSSTLTLSKADYEKHKVYACEVTHQGLSSPVTKSFNRGEC | 7 |  | 
12 | SI-95X4 (antibody) chain 1: not shown chain 2: DILMTQSPSSMSVSLGDTVSITCHSSQDINSNIGWLQQRPGKSFKGLIYHGTNLDDEVPSRFSGSGSGADYSLTISSLESEDFADYYCVQYAQFPWTFGGGTKLEIKRTVAAPSVFIFPPSDEQLKSGTASVVCLLNNFYPREAKVQWKVDNALQSGNSQESVTEQDSKDSTYSLSSTLTLSKADYEKHKVYACEVTHQGLSSPVTKSFNRGEC | 5.52 |  | 
13 | SI-95X64 (antibody) chain 1: not shown chain 2: DILMTQSPSSMSVSLGDTVSITCHSSQDINSNIGWLQQRPGKSFKGLIYHGTNLDDEVPSRFSGSGSGADYSLTISSLESEDFADYYCVQYAQFPWTFGGGTKLEIKRTVAAPSVFIFPPSDEQLKSGTASVVCLLNNFYPREAKVQWKVDNALQSGNSQESVTEQDSKDSTYSLSSTLTLSKADYEKHKVYACEVTHQGLSSPVTKSFNRGEC |  | 0.638 | 2.31
14 | SI-95X5 (antibody) chain 1: not shown chain 2: DILMTQSPSSMSVSLGDTVSITCHSSQDINSNIGWLQQRPGKSFKGLIYHGTNLDDEVPSRFSGSGSGADYSLTISSLESEDFADYYCVQYAQFPWTFGGGTKLEIKRTVAAPSVFIFPPSDEQLKSGTASVVCLLNNFYPREAKVQWKVDNALQSGNSQESVTEQDSKDSTYSLSSTLTLSKADYEKHKVYACEVTHQGLSSPVTKSFNRGEC | 7.94 |  | 
15 | SI-95X6 (antibody) chain 1: not shown chain 2: DILMTQSPSSMSVSLGDTVSITCHSSQDINSNIGWLQQRPGKSFKGLIYHGTNLDDEVPSRFSGSGSGADYSLTISSLESEDFADYYCVQYAQFPWTFGGGTKLEIKRTVAAPSVFIFPPSDEQLKSGTASVVCLLNNFYPREAKVQWKVDNALQSGNSQESVTEQDSKDSTYSLSSTLTLSKADYEKHKVYACEVTHQGLSSPVTKSFNRGEC | 6.35 |  | 
16 | SI-95X16 (antibody) chain 1: not shown chain 2: DIQMTQSPSSLSASVGDRVTITCRSSQNIVHSNGNTYLDWYQQTPGKAPKLLIYKVSNRFSGVPSRFSGSGSGTDFTFTISSLQPEDIATYYCFQYSHVPWTFGQGTKLQITGGGGSGGGGSGGGGSQVQLQQSGAEVKKPGSSVKVSCKASGYTFTNYYIYWVRQAPGQGLEWIGGINPTSGGSNFNEKFKTRVTITADESSTTAYMELSSLRSEDTAFYFCTRQGLWFDSDGRGFDFWGQGTTVTVSSGGGGSGGGGSGSGSGGGGGSGGGGSGGGGSDILMTQSPSSMSVSLGDTVSITCHSSQDINSNIGWLQQRPGKSFKGLIYHGTNLDDEVPSRFSGSGSGADYSLTISSLESEDFADYYCVQYAQFPWTFGGGTKLEIKRTVAAPSVFIFPPSDEQLKSGTASVVCLLNNFYPREAKVQWKVDNALQSGNSQESVTEQDSKDSTYSLSSTLTLSKADYEKHKVYACEVTHQGLSSPVTKSFNRGEC | 19.4 |  | 
17 | SI-95X51 (antibody) chain 1: not shown chain 2: DIVMTQSPSSVSLSLGDRVTITCHSSQDINSNIGWLQQKPGKAFKGLIYHGTNLDDGVPSRFSGSGSGADYTLTISSLQAEDFATYYCVQYAQFPWTFGPGTKLEIKRTVAAPSVFIFPPSDEQLKSGTASVVCLLNNFYPREAKVQWKVDNALQSGNSQESVTEQDSKDSTYSLSSTLTLSKADYEKHKVYACEVTHQGLSSPVTKSFNRGEC |  | 1.16 | 1.81

From patent US20260337278 (published 2026)
